Laboratory results from publication doi:10.1101/2021.02.05.429362 (bioRxiv, 2021).
Values joined by “and” are separate entries in the source; they are usually repeats but may differ in a detail not shown here. Identical values can stand only once. Like-named read-outs stand apart in the source and are kept apart here. Where no end group is shown, it is not given here.

How the values were obtained:
[1] = target: T1, G3BP1-NTF2 (residues 1-139) (human (by the printed UniProt entry …)); assay: nanoDSF
[2] = target: T1, G3BP1-NTF2 (residues 1-139); assay: nanoDSF; remark: listed apart in the source
[3] = target: T1, G3BP1-NTF2 (residues 1-139); assay: nanoDSF; remark: listed apart in the source
[4] = target: T1, G3BP1-NTF2 (residues 1-139); assay: ITC
[5] = target: T1, G3BP1-NTF2 (residues 1-139); assay: ITC; remark: listed apart in the source
[6] = target: T1, G3BP1-NTF2 (residues 1-139); assay: ITC; remark: listed apart in the source
[7] = target: G3BP1-NTF2 H31A (human (by the printed UniProt entry …, UniProt Q13283, H31A)); assay: ITC
G3BP1-NTF2 H31A (human, sequence (Q13283 1-139 H31A): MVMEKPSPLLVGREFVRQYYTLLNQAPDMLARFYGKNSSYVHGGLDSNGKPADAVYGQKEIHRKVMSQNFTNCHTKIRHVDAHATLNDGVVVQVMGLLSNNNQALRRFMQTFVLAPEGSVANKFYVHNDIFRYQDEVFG

Kd [4] [nM] | Kd [5] [nM] | Kd [6] [nM] | dH [4] | Kd [7] [nM] | dH [7] [kcal/mol] | Binder | dTm [1] [°C] | dTm [2] [°C] | dTm [3] [°C]
 |  |  |  |  |  | RQRVQDLMAQMQGPYNFIQDSMLDFENQTLD [Caprin-1^356-386 peptide] | 1.3 | 4 | 1.5
~20000 |  |  |  |  |  | {GFP}-RQRVQDLMAQMQGPYNFIQDSMADFENQTLD (domain or fragment) [GFP-Caprin-1^356-386 L378A] |  |  | 
 | 500 | 1500 ± 500 | -17 ± 1 kcal/mol | 3000 | -18 | MALHSPQYIFGDFSPDEFNQFFVTPRSS (domain or fragment) [GFP-USP10^1-28] |  |  | 
 | 1400 | 4000 ± 2000 | -18 kcal/mol and -17 kcal/mol | 15000 | -16 | {GFP}-RQRVQDLMAQMQGPYNFIQDSMLDFENQTLD (domain or fragment) [GFP-Caprin-1^356-386] |  |  | 
